Assay results: article PMC5125079 (Mycopathologia, 2011)

Columns and labels:
[1] = biological target: the molecule itself; assay: SDS-PAGE with tryptic digestion and mass spectrometry of the bands
[2] = biological target: the molecule itself; assay: SDS-PAGE and Western blot

B1: Cryptococcus neoformans recombinant antiphagocytic protein 1 (rApp1) (natural protein)
chain: MMSSATAELCFDCANCVEMLPKGTTKSVTRPEILERLTRIENHIEVQTALLSTMAASKDYKKKVYTDDDDELEEPEVQLCNMTCEMAALKTYKPQTKVSNHKIVIEAALGRLDHVNGESSIRWAQSVILGLQAAETLQNDKQMMELARVIGCLEACELRWAGDWRAGVASITLKELRTLMI
[1]
  stoichiometry N: 2

B2: App1 in total protein from C. neoformans WT (H99) (natural protein)
chain: MMSSATAELCFDCANCVEMLPKGTTKSVTRPEILERLTRIENHIEVQTALLSTMAASKDYKKKVYTDDDDELEEPEVQLCNMTCEMAALKTYKPQTKVSNHKIVIEAALGRLDHVNGESSIRWAQSVILGLQAAETLQNDKQMMELARVIGCLEACELRWAGDWRAGVASITLKELRTLMI
[2]
  stoichiometry N: 2
